Assay results: publication PMC9576766, “The human TRPA1 intrinsic cold and heat sensitivity involves separate channel structures beyond the N-ARD domain” (Nature Communications, 2022)

Target: the molecule itself
Test: SEC; gel filtration on a Sephadex 100 (G-100) size exclusion column; 20 mM HEPES, 10% glycerol, 150 mM NaCl, pH 7.8, 0.014% Fos-Choline-14; immunoglobulin of 150 kDa as reference for the tetrameric fraction

B1: Δ1–854 hTRPA1 (human TRPA1 without its N-terminal ankyrin repeat domain and transmembrane segments S1–S4) (domain or fragment, UniProt O75762 855-1119, looked up)
chain: NCGIFIVMLEVILKTLLRSTVVFIFLLLAFGLSFYILLNLQDPFSSPLLSIIQTFSMMLGDINYRESFLEPYLRNELAHPVLSFAQLVSFTIFVPIVLMNLLIGLAVGDIAEVQKHASLKRIAMQVELHTSLEKKLPLWFLRKVDQKSTIVYPNKPRSGGMLFHIFCFLFCTGEIRQEIPNADKSLEMEILKQKYRLKDLTFLLEKQHELIKLIIQKMEIISETEDDDSHCSFQDRFKKEQMEQRNSRWNTVLRAVKAKTHHLEP
notes: keeps most of the S4-S5 linker (N855, C856), S5-S6 and the C-terminal domain; gene optimised for expression in insect cells; the vector pTriEx-3 is named; The tetramer is by gel filtration; a smaller monomeric fraction eluted as well; also called S1–S4 transmembrane domain deleted hTRPA1
  stoichiometry N: 4
